Here are results for three molecules from patent US20040191820, “Protection-of telomere-1 (POT-1) protein and encoding polynucleotides” (The Regents of the University of Colorado, published 2004).

The target of data set [1] is T1, hPot1p (Homo sapiens, UniProt Q9NUX5 SEQ:1-634).
T1 chain: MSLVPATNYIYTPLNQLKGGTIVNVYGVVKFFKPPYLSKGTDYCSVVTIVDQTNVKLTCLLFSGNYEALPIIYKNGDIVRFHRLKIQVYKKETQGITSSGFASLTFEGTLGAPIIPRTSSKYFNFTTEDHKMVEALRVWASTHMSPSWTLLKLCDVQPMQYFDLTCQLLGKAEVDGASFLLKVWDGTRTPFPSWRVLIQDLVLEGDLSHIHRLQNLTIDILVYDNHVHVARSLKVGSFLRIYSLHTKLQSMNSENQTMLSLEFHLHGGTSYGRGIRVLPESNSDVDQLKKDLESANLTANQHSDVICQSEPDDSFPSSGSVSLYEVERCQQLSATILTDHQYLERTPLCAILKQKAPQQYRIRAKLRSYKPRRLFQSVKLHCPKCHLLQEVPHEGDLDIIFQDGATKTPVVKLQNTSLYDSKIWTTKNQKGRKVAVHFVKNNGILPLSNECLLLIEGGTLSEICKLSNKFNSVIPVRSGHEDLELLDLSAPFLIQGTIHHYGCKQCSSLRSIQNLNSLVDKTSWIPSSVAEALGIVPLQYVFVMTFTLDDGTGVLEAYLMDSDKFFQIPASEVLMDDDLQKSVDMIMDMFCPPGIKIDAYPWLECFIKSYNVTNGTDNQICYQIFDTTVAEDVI
Description: listed as hPot1p-binding. The settings on record: tags: N-terminal His6 (pQE30), E. coli.

For data set [2], the target named is T1, hPot1p. Description: EMSA; conditions as for SpPot1p. The settings on record: tags: N-terminal His6 (pQE30), E. coli. Background: Mobility shift assays separate free from complexed probe on a gel.

B1: PBoli177 (ssDNA)
DNA: TTAGGGTTAGGGTTAGGGTT
As to B1, the binding result with hPot1p [1] is recorded as “binds”.

B2: PBoli178 (ssDNA)
DNA: GGTTAGGGTTAGGGTTAGGG
On to B2, for which the binding result with hPot1p [1] is on record as “binds”.

B3: human G-strand (TTAGGG)5 (PBoli179) (ssDNA)
DNA: TTAGGGTTAGGGTTAGGGTTAGGGTTAGGG
With B3, the binding result with hPot1p [2] is recorded as “binds”.
